This note sets out measurements from article PMC8036708.

As usually defined, the Kd is the concentration at which binding is half-saturated. Low readings indicate a tighter complex, high ones a looser complex.

The target in assay [1] is adenovirus terminal protein-thioredoxin fusion protein (TP–Trx), bacterially expressed (adenovirus (serotype not given)). In words: AlphaScreen or HTRF; 30 nM TP–Trx (or Trx tag alone) on nickel NTA donor beads, serial dilutions of GST-tagged importins or GST control on GST acceptor beads; 0.5% BSA added, dilutions in PBS, room temperature in the dark; one-phase association fit. For orientation: In Alpha technology, singlet oxygen from a donor bead excites a nearby acceptor bead.

Assay [2] shares this target.

In the case of “importin β1 (Imp β1), GST-tagged (from UniProt P70168 1-876) (natural protein)”, the Kd in assay [1] was found to be 21 nM. The substance further registered a Nf/Cf of TP–Trx–AF594 microinjected into HeLa cells incubated with importazole (40 µM), a selective Imp β inhibitor; 1.62 with DMSO in assay [2] of 1.04.
